Measured values from PMC9675976, “Selfish uptake versus extracellular arabinoxylan degradation in the primary degrader Ruminiclostridium cellulolyticum, a new string to its bow” (Biotechnology for Biofuels and Bioproducts, 2022).
Each block holds one molecule with its values, some of them ahead of it.

Key:
XuaJ = XuaJ (Ruminiclostridium cellulolyticum, UniProt B8I0P3); assay: Esterase activity of XuaJ; format: biochemical; conditions: 37 °C, 25 mM phosphate buffer pH 7, XuaJ 0.01 µM for 1-naphthyl acetate
Experimental: (§1) Esterase activity was tested using 1-Naphthyl acetate. Release of 1-Naphthol was monitored at 320 nm during 5 min at 37 °C in 25 mM phosphate buffer pH 7, with substrate final concentration ranging from 110 µM and 5.36 mM, and with XuaH (0.1 µM) or XuaJ (0.01 µM). Concentration of released 1-Naphthol during the first minute of the assay was determined based on 1-Naphthol standard curve.

XuaH = XuaH (Ruminiclostridium cellulolyticum, UniProt B8I0P1); assay: Esterase activity of XuaH; format: biochemical; conditions: 37 °C, 25 mM phosphate buffer pH 7, XuaH 0.1 µM for 1-naphthyl acetate
Sequence of XuaH (B8I0P1 entry or part of it): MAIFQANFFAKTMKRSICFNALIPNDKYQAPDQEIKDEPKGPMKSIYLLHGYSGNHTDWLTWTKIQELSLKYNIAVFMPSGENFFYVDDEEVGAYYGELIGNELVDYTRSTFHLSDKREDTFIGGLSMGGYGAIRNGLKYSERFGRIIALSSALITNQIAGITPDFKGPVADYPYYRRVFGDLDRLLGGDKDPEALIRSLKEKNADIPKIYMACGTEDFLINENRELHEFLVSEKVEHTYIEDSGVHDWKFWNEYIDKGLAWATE
Experimental: as §1

[1] = substrate: OC[C@@H]1O[C@@H](O[C@@H]2[C@@H](O[C@@H]3O[C@@H](CO)[C@H](O)[C@H]3O)[C@H](O[C@@H]3CO[C@@H](O[C@@H]4COC(O)[C@H](O)[C@H]4O)[C@H](O)[C@H]3O)OC[C@H]2O)[C@H](O)[C@H]1O; assay: Enzyme activity of XuaD on AXOS (HPAEC-PAD); format: biochemical, Ruminiclostridium cellulolyticum; conditions: other: 37 °C, substrate 0.05 to 8 mM
Experimental: (§2) XuaD, E, F, G (0.01 to 1 µM) were tested with different AXOS and/or XOS at 1 mM with incubation times varying from 5 min to 24 h. Enzymes (10 nM) were incubated at 37 °C for 5 min, kinetic parameters of XuaD were determined with both A^2,3XX and A^2XX, with sugar concentration varying from 0.05 to 8 mM, and XuaE with A^2,3XX with sugar concentration varying from 0.05 to 1 mM (at least 9 concentration point). Substrates and released products were quantified by high performance anion exchange chromatography coupled with pulsed amperometric detection on an ICS-3000 using a PA1 column (Thermo Scientific). Sugars were eluted with the buffers 0.1 M NaOH and 0.5 M sodium acetate + 0.1 M NaOH as the eluants A and B, respectively, using the multistep procedure as follows: isochratic separation (5 min, 95% A + 5% B), separation gradient (8 min, 10–37% B), column wash (2 min, 99% B), and subsequent column equilibration (2.5 min, 95% A + 5% B).

[2] = substrate: OC[C@@H]1O[C@@H](O[C@H]2[C@H](O[C@@H]3CO[C@@H](O[C@@H]4COC(O)[C@H](O)[C@H]4O)[C@H](O)[C@H]3O)OC[C@@H](O)[C@@H]2O)[C@H](O)[C@H]1O; assay: Enzyme activity of XuaD on AXOS (HPAEC-PAD); format: biochemical, Ruminiclostridium cellulolyticum; conditions: other: 37 °C, substrate 0.05 to 8 mM
Experimental: as §2

[3] = substrate: CC(=O)Oc1cccc2ccccc12; assay: Esterase activity of XuaJ; format: biochemical, Ruminiclostridium cellulolyticum; conditions: other: 37 °C, pH 7, substrate 110 µM to 5.36 mM
Experimental: as §1

Specific activity (IU) of XuaJ (XuaJ): IU: 21130.4 ± 676.4 IU/µmol of enzyme
Specific activity (IU) of XuaH (XuaH): IU: 3504.6 ± 18.9 IU/µmol of enzyme
Molecule: CC(=O)Oc1cccc2ccccc12 [1-Naphthyl acetate]

B1: XuaD (Ruminiclostridium cellulolyticum H10) (protein)
chain: MVKMILNADIKKGKINKNIYGHFSEHLGRCIYEGLWVGEDSEIPNINGFRTDVVEALKKMKIPVLRWPGGCFADEYHWVDGIGPKENRPCMVNTHWGGVVENNHFGTHEFLELCEMLGAEPYICGNVGSGTVHEMQQWVEYMTFDGKSPMADLRRANGKEEPWRVKYFGVGNENWGCGGNMTAEFYADQYKRYATYVRNFGDNKIYKIAGGASVDDYHWTEVLMREAGKQMDGLSVHYYTRISKDWSEQGSATEFDENHWFSVMQNALFTEELVVRHSNIMDKYDPEKKVGMIVDEWGTWFAVEPGTNPGFLYQQNTMRDALVAGIHLNIFNNHCDRVQMANIAQMVNVLQAVILTEGKKMLLTPTYHVFDMYKVHQGAELLSLDFESPEYAYNGEKVPQLSASSSVDSEGKIHVTICNLNPSADVNIDIDLRGVKSKSSTGKIITSNAMNAKNTFEETTNVTIKNFEDINLENNHISGKIPSKSVVLLEIV
Km [1]: Km 1.8 ± 0.2 mM
kcat [1]: kcat 4191.3 ± 117.3 min^−1
kcat/Km [1]: kcat/Km 2388.2 ± 182.9 min^−1 mM^−1
Km [2]: Km 1.4 ± 0.3 mM
kcat [2]: kcat 3408.0 ± 356.6 min^−1
kcat/Km [2]: kcat/Km 2411.9 ± 303.3 min^−1 mM^−1

B2: XuaJ (Ruminiclostridium cellulolyticum H10) (protein)
chain: MGIILNSNRPKIRLPRIISDGMVLQRNTDVKIWGWASPGEAVTVRFIGKAYHAFADDSGEWFVRLEQAKAGGPYDMYIETEESLEKITIKNILMGDVWLCSGQSNMEMKMDSVKDTYPDEIVHSCNDYIRHFLVPVKYDFEKPQTDLEAGIWEAANPESILDFTATGYFFALKLFEKYNIPIGLINASLGGSPAEAWLSENALREFPEHYESAKQLSNRDYLDKVLREDQESAEAWYTALNQNDEGLKSNDIPFHDTEYDAPFWQNIKVPSYWEDEGVGNFNGVVWFRKEIDIPSTLADKPARLVLGNIVDEDTAYINGIEVGTTPNQYITRKYSIQEGLLKEGKNTIVLRVVNTAGKGGFYKDKPYQLEIGDNIIELSGEWQYMIGAKSSPMPAPAFVQWRPLGLYNGMIAPVTSYSIKGFIWYQGESNTKNPGEYENLLKALIADWRQKWNMGNLPFLYVQLPNFMEASEIPMESSWAELREAQRRTLSVPCTGMAVAIDLGEWNDIHPVNKKDVGFRLALAAMKTAYRDKTIVAYGPMYQSGKIDGNRIILSFTDTGSGLTVKNGDRPEAFAIAGADRTFVRADAEIIGDSVAVWSEKVSHPVYVKYAWADNPADANLYNLEGLPASPFTTE
Km [3]: Km: 0.2 ± 0.02 mM
kcat [3]: kcat: 21380.0 ± 440.0 min^-1
kcat/Km [3]: kcat/Km: 88703.9 ± 7849.6 min^-1 mM^-1
